The text below walks through data of US20110300138A1 (published 2011).

The target in assay [1] is TSHR with Trp258 mutated to Ala, expressed in CHO cells (human) (UniProt P16473). Description: cell-based or functional assay.
In assay [2] the target is wild type TSHR (human TSH receptor) expressed in CHO cells (human) (UniProt P16473). Description: cell-based or functional assay.
Assay [3] deals with thyroid stimulating hormone receptor (TSHR), full length human TSHR (human) (UniProt P16473). Kind of assay: TSH-biotin competition ELISA, TSHR coated wells; negative control, 10 µg/mL in HBD serum.
Assay [4] has the same target. Description: TSH-biotin competition ELISA, TSHR coated wells; negative control, 0.1 µg/mL in HBD serum. In general terms: ELISA stands for enzyme-linked immunosorbent assay.
The target is the same in assay [5]. Description: TSH-biotin competition ELISA, TSHR coated wells; negative control, 100 µg/mL in HBD serum.
The target in assay [6] is human thyroid stimulating hormone receptor (TSHR), full length (human) (UniProt P16473). Kind of assay: 125I-K1-70 Fab (competitor) binding to TSHR coated tubes; negative control MAb 100 µg/mL in HBD serum.
The target is the same in assay [7]. Kind of assay: 125I-K1-70 Fab (competitor) binding to TSHR coated tubes; negative control MAb 1 µg/mL in assay buffer.
The target is the same in assay [8]. Description: 125I-K1-70 Fab (competitor) binding to TSHR coated tubes; negative control MAb 10 µg/mL in assay buffer.
The target of assay [9] is human TSH receptor (full length) coated on ELISA plate wells (human) (UniProt P16473). Description: TSH-biotin binding inhibition ELISA, TSHR coated wells; 10 µg/mL in HBD serum pool; negative control MAb.
Assay [10] has the same target. Description: TSH-biotin binding inhibition ELISA, TSHR coated wells; 1 µg/mL in assay buffer + 100 µg/mL 5B3 IgG; negative control MAb.
The target of assay [11] is TSH receptor (TSHR), full length human, coated on tubes (human) (UniProt P16473). Kind of assay: inhibition of 125I-K1-18 IgG binding to TSHR coated tubes; competitor 125I-K1-18 IgG; negative control sample at 1 µg/mL in assay buffer.
In assay [12] the target is TSH receptor (full length human TSHR) (human) (UniProt P16473). Description: competition ELISA: inhibition of M22 Fab-peroxidase (competitor) binding to TSHR coated wells; negative control at 100 µg/mL diluted in assay buffer.
Assay [13] addresses thyroid stimulating hormone receptor (TSHR), full length human TSHR (human) (UniProt P16473). Kind of assay: TSH-biotin competition ELISA, TSHR coated wells; 0.01 µg/mL in HBD serum.
Assay [14] addresses TSH receptor (TSHR), full length human, coated on tubes (human) (UniProt P16473). Description: inhibition of 125I-TSH binding to TSHR coated tubes; 0.01 µg/mL, diluted in assay buffer.
In assay [15] the target is TSHR (full length) coated on tubes (human) (UniProt P16473). Kind of assay: inhibition of 125I-K1-18 Fab (competitor) binding to TSHR coated tubes; test sample 0.1 µg/mL in HBD serum.
Assay [16] concerns the target TSH receptor (TSHR), full length human, coated on tubes (human) (UniProt P16473). Description: inhibition of 125I-K1-18 IgG binding to TSHR coated tubes; competitor 125I-K1-18 IgG; sample at 100 µg/mL in assay buffer.
In assay [17] the target is TSH receptor (full length human TSHR) (human) (UniProt P16473). Description: competition ELISA: inhibition of M22 Fab-peroxidase (competitor) binding to TSHR coated wells; test sample at 0.1 µg/mL diluted in assay buffer.
The target is the same in assay [18]. Description: competition ELISA: inhibition of M22 Fab-peroxidase (competitor) binding to TSHR coated wells; test sample at 0.01 µg/mL diluted in assay buffer.
The target is the same in assay [19]. Kind of assay: competition ELISA: inhibition of M22 Fab-peroxidase (competitor) binding to TSHR coated wells; test sample at 10 µg/mL diluted in HBD serum pool.
In assay [20] the target is TSH receptor (full length human TSHR) coated on tubes (human) (UniProt P16473). Kind of assay: 125I-TSH binding inhibition read against NIBSC 90/672; mean over 10, 30 and 100 ng/mL, in assay buffer.
In assay [21] the target is human TSH receptor (full length) coated on ELISA plate wells (human) (UniProt P16473). Kind of assay: TSH-biotin binding inhibition ELISA, TSHR coated wells; 0.03 µg/mL in assay buffer + 100 µg/mL 5B3 IgG.
The target of assay [22] is human thyroid stimulating hormone receptor (TSHR), full length (human) (UniProt P16473). Description: 125I-K1-18 Fab competition, TSHR coated tubes; 100 µg/mL in HBD.
Assay [23] concerns the target human TSH receptor (full length) coated on ELISA plate wells (human) (UniProt P16473). Kind of assay: TSH-biotin binding inhibition ELISA, TSHR coated wells; 100 µg/mL in assay buffer.
In assay [24] the target is TSH receptor (TSHR) coated on tubes (human) (UniProt P16473). Description: inhibition of 125I-K1-70 IgG binding to TSHR coated tubes; sample 0.1 µg/mL in HBD serum pool.
Assay [25] addresses TSH receptor (TSHR), full length human, coated on tubes (human) (UniProt P16473). Description: inhibition of 125I-K1-18 IgG (competitor) binding to TSHR coated tubes; test sample at 0.1 µg/mL in HBD serum pool.
Assay [26] addresses thyroid stimulating hormone receptor (full length human TSHR) (human) (UniProt P16473). Description: ELISA: inhibition of M22 Fab-peroxidase (competitor) binding to TSHR coated wells; 1 µg/mL, diluted in assay buffer.

In [1], 5B3 IgG (antibody) returned a % inhibition of TSH stimulation; 5B3 10 µg/mL of 15%. In assay [1], the % inhibition of TSH stimulation; 5B3 100 µg/mL came to 4%. Moreover, the values for the Cyclic AMP produced; 5B3 10 µg/mL + TSH 3 ng/mL in assay [1] and in [2] were 50.7 pmol/mL and 67.7 pmol/mL, respectively. The Cyclic AMP produced; 5B3 100 µg/mL + TSH 3 ng/mL worked out at 57.6 pmol/mL in [1] and 72.8 pmol/mL in assay [2]. Moreover, the Mutated/wild type (%) of cyclic AMP produced; 5B3 10 µg/mL + TSH 3 ng/mL in [1] turned out to be 75%. Moreover, the Mutated/wild type (%) of cyclic AMP produced; 5B3 100 µg/mL + TSH 3 ng/mL in assay [1] is 79%. Moreover, the Inhibition of binding (%) in [3] was -1.6%; in assay [4] it was -1.2%; in [5], -2.3%; in assay [6], -8.6%; in assay [7], -1.7%; in assay [8], -2.1%. For the same molecule, the values for the Inhibition of binding (%) in assay [11] and in assay [12] were -3.8% and 8.1%, respectively. In addition, the % inhibition of TSH-biotin binding was 11.6% in [9] and -4.8% in [10].

Regarding 9D33 IgG (antibody), the Inhibition of binding (%) in assay [13] came to 10.1%; in assay [14], 15.8%; in assay [15], 32.2%; in [16], 72.5%; in [17] it was 35.1%; in assay [18] it was 14.8%. Also, the Inhibition of binding (%) in assay [19] amounted to 66.7%.

In the case of M22 IgG (antibody), the mean units/mg in [20] turned out to be 266 units/mg. The % inhibition of TSH-biotin binding in [21] is 43.6%.

B1: 5C9 IgG (antibody, from another filing, V domains shown)
VH: EVQLVESGGGLIQPGGSLRLSCAASGFTVSSNYMSWVRQAPGKGLEWVSVTYSGGSTSYADSVKGRFTISRDNSKNTLYLQMNSLRAEDTAVYYCARGGRYCSSISCYARSGCDYWGQGTLVTVSS
VL: AIQMTQSPSSLSASVGDRVTITCRASQSISNYLNWYQQKPGKAPKLLIYAASSLQSGVPSRFSGSGSGTDFTLTISSLQPEDFATYYCQQSYSSPSTTFGQGTKLEIK
B1: the Inhibition of binding (%) was found to be 61.3% in assay [22], 4.4% in [24], 21.3% in [25] and 12.1% in assay [26]. In [23], the % inhibition of TSH-biotin binding is 91.2%.
